Data reported in US8420776B2, “Ube2G2 binding domain in the ubiquitin ligase gp78 and methods of use thereof” (The United States of America, as Represented by the …, priority 2004, dated 2013).
Where a chain is given by its changes, count along the chain named.

Experiments:
ERAD substrate CD3-δ = test: CD3-δ level in co-transfected cells by immunoblotting; format: cell-based; conditions: for effect on CD3-δ level (stabilization): co-transfection with CD3-δ, immunoblot; for reversal of G2BD-induced CD3-δ stabilization by co-transfected Ube2G2: cells expressing Flag-tagged gp78 574-643, 2 or 4 μg Ube2G2 plasmid
Protocol: (§1) Transfections of HT1080, NIH 3T3 and HEK 293T cells were carried out ˜24 hr after plating using Polyfect (Qiagen, Valencia, Calif.) and cells harvested after ˜48 hr. J558 cells were transfected by electroporation using Bio-rad GENE pulser II at settings of 250 v, 950uF. Vector without insert was used to equalize total plasmid. In most experiments 0.15 μg of pEGFP-C1 served as an internal control. For experiments not involving immunoprecipitation, 6×10^5 cells were plated in 6 well plates and cell lysis was with Mammalian Protein Extraction Reagent (Pierce). For immunoprecipitation, 2.4×10^6 cells were seeded in 100 mm dishes and cells were lysed in RIPA buffer (1×PBS, 1% Nonidet P40. 0.5% sodium deoxycholate, 0.1% SDS). Lysis buffers were supplemented with Protease Inhibitor Cocktail (Sigma) and 10 mM iodoacetamide. Supernatants were analyzed after a 10,000×g centrifugation using standard techniques for immunoprecipitation, SDS-PAGE, immunoblotting and ECL. Treatment of cells with MG132 (Sigma) was at 50 μM for eight hr. Cycloheximnide was used at 50 μg/ml. All cells were collected at the end of the six hr chase.
FIG. 7 depicts the stabilization of CD3-δ protein in cells transfected with the G2BD, but not with the G2BD with amino acids 579-584 (of SEQ ID NO:2) mutated. HEK 293T cells were transfected with the ERAD substrate CD3-δ along with the indicated GFP fusions of gp78. The left and right sides are two separate experiments.
To test this, GFP fusions of either a minimal E2 binding domain (GFP-574-611) or a more extended region that includes the C-terminus of gp78 (GFP-574-643) were evaluated (FIG. 21A). […] To assess this further, the C-terminal region of gp78 was fused to the eight amino acid Flag tag. […] Mdm2 is a RING finger E3 for both itself and p53 that is neither an ERAD substrate nor known to utilize Ube2G2 as an E2. […] To establish with certainty that the effect observed with expression of the Ube2G2 binding site is a consequence of binding endogenous E2, and not due to other unanticipated effects, cells were co-transfected with increasing amounts of Ube2G2 (FIG. 21C, lanes 3 and 4). […] These findings clearly establish that the isolated E2 binding site has the potential to markedly alter ERAD of CD3-δ. To ensure the effect observed was not peculiar to one substrate, TCR-α was evaluated (FIG. 21D).

[1] = target: T1, lysine 48-linked (K48) tetra-ubiquitin (Homo sapiens, UniProt P0CG47); test: Tetra-ubiquitin binding to GST fusions; conditions: anti-ubiquitin immunoblot
T1 construct: 1 μg K48 tetra-ubiquitin produced as described (Piotrowski et al., 1997); made in house
Protocol: GST fusions were purified from E. Coli. Binding was carried out using equi-molar amount of fusion proteins measured by Commassie blue staining. Generally, 20 picomoles/sample were used. In vitro translated E2 was generated by coupled transcription and translation using 35S methionine in either wheat germ or rabbit reticulocyte lysate. Binding assays using in vitro translated E2 was carried out by incubating GST protein pre-bound to Glutathione-sepharose 4B with […] of ^35S-methionine labeled E2 in binding buffer (25 mM Tris-HCl, pH 7.4; 50 mM NaCl, 5 mM DTT; and 0.5% NP-40) overnight at 4° C. Beads were washed with binding buffer and resolved by SDS-PAGE under reducing conditions. Analysis was by Storm PhosphoImager (Applied Biosystems, Foster City, Calif.). Direct binding assays used wild type His6-MmUbc7 (His6-Ube2G2) and Glutathione-sepharose bound GST fusions. Beadbound GST protein was incubated with 100 ng purified His6-MmUbc7 in binding buffer and washed and eluted as above. After transfer to Hybond-P (Amersham Biosciences) binding was assessed with anti-His6 followed by Enhanced Chemiluminescence ECL; Pierce). Ubiquitin binding studies were performed with binding and washing as above using 1 μg K48 tetra-ubiquitin produced as described (Piotrowski et al., 1997). Detection was by anti-ubiquitin immunoblotting.

Myc-Ube2G2 = target: T2, Myc-Ube2G2 (Mus musculus, UniProt P60605); test: Co-immunoprecipitation with co-expressed Myc-Ube2G2 in cells; format: cell-based; conditions: anti-Myc IP, anti-gp78 IB; MG132 8 hr
T2 construct: expressed in transfected cells; host or cells: HEK 293T
T2 sequence (P60605 1-165): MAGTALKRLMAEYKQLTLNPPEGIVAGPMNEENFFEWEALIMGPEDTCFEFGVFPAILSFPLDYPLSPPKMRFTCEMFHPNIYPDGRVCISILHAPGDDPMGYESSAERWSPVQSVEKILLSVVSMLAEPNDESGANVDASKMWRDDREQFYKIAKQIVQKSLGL
Protocol: as §1
FIG. 5 depicts the results of immunoprecipitation of Ube2G2 (MmUbc7) from HEK 293T cells co-transfected with a plasmid encoding myc-tagged MmUbc7/Ube2G2 together with s plasmid encoding various forms of gp78. HEK 293T cells were transfected with a plasmid encoding myc-tagged MmUbc7/Ube2G2 together with plasmids encoding various forms of gp78. After 48 hours, cells were harvested and co-immuntoprecipitated with an anti-Myc tage. Anti-gp78 was used for detection. “R2M” indicates a mutation of two crucial residues in the RING finger. “T” indicates C terminal truncations at the indicated amino acids. ΔB is the mutation indicated above in FIG. 4 in the context of the full length gp78 and “Cue12M” indicates mutations in the Cue domain of gp78.
To confirm the significance of the Ube2G2 binding site in cells, a variety of mutations and truncations of full-length gp78 were tested for binding of co-expressed Myc-Ube2G2 (FIG. 19A). Cells were treated with the proteasome inhibitor MG132 in an attempt to equalize levels of the various forms of gp78.

B1: GFP-574-643: GFP fusion of a more extended region that includes the C-terminus of gp78, residues 574-643 (protein, listed as Homo sapiens)
chain: SADERQRMLVQRKDELLQQARKRFLNKSSEDDAASESFLPLEGASSDPVTLRRRMLAAAAERRLQKQQTS
For B1, the “effect on CD3-δ level (stabilization)” value (ERAD substrate CD3-δ) was “dramatically stabilized CD3-δ”.

B2: Flag-tagged gp78 residues 574-643: C-terminal region of gp78 fused to the eight amino acid Flag tag (protein)
chain: B1 chain
modifications: left off: small tags and cut ends
notes: C-terminal region of gp78 fused to the eight amino acid Flag tag
In the case of B2, the “effect on CD3-δ level (stabilization)” value (ERAD substrate CD3-δ) is reported as “marked stabilization of CD3-δ”.

B3: Ube2G2: ubiquitin conjugating enzyme Ube2G2 expressed from co-transfected plasmid (protein, listed as Homo sapiens)
chain: T2 sequence (P60605 1-165)
With B3 the “reversal of G2BD-induced CD3-δ stabilization by co-transfected Ube2G2” value (ERAD substrate CD3-δ) was “dose-dependent reversal of CD3-δ stabilization” and the “reversal of G2BD-induced CD3-δ stabilization by co-transfected Ube2G2” value (ERAD substrate CD3-δ; listed as Ube2G2/MmUbc7) was “reversed”.

B4: Cue-m1: GST fusion of complete C-terminal region of gp78 with MFP to GGR mutation of residues 467 to 469 (protein)
chain: IRRHKNYLRVVGNMEARFAVATPEELAVNNDDCAICWDSMQAARKLPCGHLFHNSCLRSWLEQDTSCPTCRMSLNIADNNRVREEHQGENLDENLVPVAAAEGRPRLNQHNHFFHFDGSRIASWLPSFSVEVMHTTNILGITQASNSQLNAMAHQIQEGGRQVPYHLVLQDLQLTRSVEITTDNILEGRIQVPFPTQRSDSIRPALNSPVERPSSDQEEGETSAQTERVPLDLSPRLEETLDFGEVEVEPSEVEDFEARGSRFSKSADERQRMLVQRKDELLQQARKRFLNKSSEDDAASESFLPLEGASSDPVTLRRRMLAAAAERRLQKQQTS
modifications: left off: a dimerising Fc or GST
In the case of B4, the “binding of K48 tetra-ubiquitin” value [1] is reported as “total loss of ubiquitin binding”.

B5: Cue-m2: GST-gp78 fusion with VLQDL to RLQVD mutation of residues 476 to 480 (protein)
chain: B4 chain with G159M, G160F, R161P, V168R, D171V, L172D
modifications: left off: a dimerising Fc or GST
For B5, the “binding of K48 tetra-ubiquitin” value [1] was “total loss of ubiquitin binding”.

B6: 435-507: GST fusion of amino acids 435-507 of gp78, the Cue domain region (protein)
chain: SFSVEVMHTTNILGITQASNSQLNAMAHQIQEMFPQVPYHLVLQDLQLTRSVEITTDNILEGRIQVPFPTQRS
modifications: left off: a dimerising Fc or GST
notes: GST fusion of amino acids 435-507 of gp78, the Cue domain region
With B6 the “binding of K48 tetra-ubiquitin” value [1] was “sufficient to bind tetra-ubiquitin”.

B7: gp78576: gp78 truncated after amino acid 576 of SEQ ID NO:2 (protein, listed as Homo sapiens)
chain: MPLLFLERFPWPSLRTYTGLSGLALLGTIISAYRALSQPEAGPGEPDQLTASLQPEPPAPARPSAGGPRARDVAQYLLSDSLFVWVLVNTACCVLMLVAKLIQCIVFGPLRVSERQHLKDKFWNFIFYKFIFIFGVLNVQTVEEVVMWCLWFAGLVFLHLMVQLCKDRFEYLSFSPTTPMSSHGRVLSLLVAMLLSCCGLAAVCSITGYTHGMHTLAFMAAESLLVTVRTAHVILRYVIHLWDLNHEGTWEGKGTYVYYTDFVMELTLLSLDLMHHIHMLLFGNIWLSMASLVIFMQLRYLFHEVQRRIRRHKNYLRVVGNMEARFAVATPEELAVNNDDCAICWDSMQAARKLPCGHLFHNSCLRSWLEQDTSCPTCRMSLNIADNNRVREEHQGENLDENLVPVAAAEGRPRLNQHNHFFHFDGSRIASWLPSFSVEVMHTTNILGITQASNSQLNAMAHQIQEMFPQVPYHLVLQDLQLTRSVEITTDNILEGRIQVPFPTQRSDSIRPALNSPVERPSSDQEEGETSAQTERVPLDLSPRLEETLDFGEVEVEPSEVEDFEARGSRFSKSAD
In the case of B7, the “E2 association of full-length gp78 forms with co-expressed Myc-Ube2G2” value (Myc-Ube2G2) is reported as “loss of E2 binding”.
